Laboratory results from publication PMC2737085.

Target: RPA heterotrimer with the phosphomimetic Asp8-RPA2 subunit (UniProt P27694)
Assay: co-IP

- percent decrease in binding against RPA: 88%
Substance: MRE11/RAD50/NBS1 (MRN) complex (from UniProt P49959 1-708; Q92878 1-1312; O60934 1-754)
